Earlier results on one substance are cited in paper PMC2846234.

As usually defined, the Kd is the constant that tells how readily two partners part at equilibrium.

This series concerns the target beta sliding clamp (Escherichia coli) (UniProt P0A988).
Sequence of UniProt P0A988 (P0A988 whole entry): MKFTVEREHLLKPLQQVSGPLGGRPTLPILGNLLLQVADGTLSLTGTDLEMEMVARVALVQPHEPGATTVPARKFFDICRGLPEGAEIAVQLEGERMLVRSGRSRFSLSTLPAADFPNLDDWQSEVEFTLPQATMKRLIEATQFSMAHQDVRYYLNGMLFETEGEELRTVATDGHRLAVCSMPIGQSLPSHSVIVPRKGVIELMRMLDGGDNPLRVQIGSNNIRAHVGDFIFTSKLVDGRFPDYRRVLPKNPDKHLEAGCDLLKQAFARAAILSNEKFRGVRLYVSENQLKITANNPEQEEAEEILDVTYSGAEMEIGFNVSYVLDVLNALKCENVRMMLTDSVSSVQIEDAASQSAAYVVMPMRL

On to DNA polymerase II (from UniProt P21189), for which the Kd was 0.032 µM.
